Measured values reported in article PMC6298778, “A secretory pathway kinase regulates sarcoplasmic reticulum Ca^2+ homeostasis and protects against heart failure” (eLife, 2018).

What was measured:
[1] = molecular target: calsequestrin 2 (CSQ2, CASQ2) 19-399 (UniProt O14958); test: Ca2+-dependent turbidity, absorbance at 350 nm; conditions: reference: CSQ2 treated in tandem without Fam20C; sites S385
[2] = molecular target: the molecule itself; test: turbidity assay; 4.5 uM phosphorylated or unphosphorylated His-CASQ2, 10 mM Tris-HCl pH 7.0, 10% glycerol, CaCl2 at the concentrations indicated; 30 min at room temperature; absorbance at 350 nm

binding against the reference [1]	Molecule	binding result [2]
stronger	calsequestrin 2 (CSQ2, CASQ2) 19-399 (from UniProt O14958) CSQ2 phosphorylated in vitro by Fam20C	
	calsequestrin 2 (CSQ2), phosphorylated in vitro by Fam20C, His-tagged (natural protein, human, UniProt O14958 19-399, looked up, phosphoserine at 385 (phosphorylated in vitro by Fam20C; saturated phosphorylation >95%), also called phosphorylated CSQ2; phosphorylated His-CASQ2; source: E. coli BL21 (DE3)-RILP, purified (Ni-NTA), phosphorylated in vitro by Fam20C, then size exclusion chromatography; not shown: His6, C-terminal, kept) AEEGLNFPTYDGKDRVVSLSEKNFKQVLKKYDLLCLYYHEPVSSDKVTQKQFQLKEIVLELVAQVLEHKAIGFVMVDAKKEAKLAKKLGFDEEGSLYILKGDRTIEFDGEFAADVLVEFLLDLIEDPVEIISSKLEVQAFERIEDYIKLIGFFKSEDSEYYKAFEEAAEHFQPYIKFFATFDKGVAKKLSLKMNEVDFYEPFMDEPIAIPNKPYTEEELVEFVKEHQRPTLRRLRPEEMFETWEDDLNGIHIVAFAEKSDPDGYEFLEILKQVARDNTDNPDLSILWIDPDDFPLLVAYWEKTFKIDLFRPQIGVVNVTDADSVWMEIPDDDDLPTAEELEDWIEDVLSGKINTEDDDEDDDDDDNSDEEDNDDSDDDDDE	binds
	calsequestrin 2 (CSQ2), unphosphorylated, His-tagged (natural protein, human, UniProt O14958 19-399, looked up, Control sample of the turbidity assay: same treatment as the phosphorylated protein but without Fam20C; also called CASQ2; His-CASQ2; source: E. coli BL21 (DE3)-RILP, purified (Ni-NTA, size exclusion chromatography); treated in tandem without Fam20C; not shown: His6, C-terminal, kept) AEEGLNFPTYDGKDRVVSLSEKNFKQVLKKYDLLCLYYHEPVSSDKVTQKQFQLKEIVLELVAQVLEHKAIGFVMVDAKKEAKLAKKLGFDEEGSLYILKGDRTIEFDGEFAADVLVEFLLDLIEDPVEIISSKLEVQAFERIEDYIKLIGFFKSEDSEYYKAFEEAAEHFQPYIKFFATFDKGVAKKLSLKMNEVDFYEPFMDEPIAIPNKPYTEEELVEFVKEHQRPTLRRLRPEEMFETWEDDLNGIHIVAFAEKSDPDGYEFLEILKQVARDNTDNPDLSILWIDPDDFPLLVAYWEKTFKIDLFRPQIGVVNVTDADSVWMEIPDDDDLPTAEELEDWIEDVLSGKINTEDDDEDDDDDDNSDEEDNDDSDDDDDE	binds
